The RNAGym collection of RNA variant scans (doi:10.1073/pnas.2313332121)
Variants at the floor of the assay were thinned out.

B1: TPR 5TU (parent)
chain: GGAUCUUCUCGAUCUAACAAAAAAGACAAAUCUGCCACAAAGCUUGAGAGCAUCUUCGGAUGCAGAGGCGGCAGCCUUCGGUGGCGCGAUAGCGCCAACGUUCUCAACUAUGACACGCAAAACGCGUGCUCCGUUGAAUGGAGUUUAUCAUG

Variants of: B1
Assay: polymerase ribozyme fitness, log enrichment relative to wild type (log ratio); higher = more active; in vitro selection for triplet polymerase activity
Outline: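 Fitness measures genotype enrichment against wild-type enrichment on a logarithmic scale, with inverse-variance-weighted averaging of replicates. The logarithm is base 2, and genotypes were kept only with ≥10 input reads and ≥1 read per output in Illumina sequencing. The sequenced libraries came from one triplicate in vitro selection round, including frozen incubation at −7 °C, of PCR-built, transcribed mutant libraries of each subunit of a heterodimeric triplet polymerase ribozyme.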

First: GGAUCGUCUCGAUCUAACAAAAAAGACAAAUCUGCCACAAAGCUUGAGAGCGUCUUCGGAUGCAGAGGCGGCAGCCUUCGGUGGCGCGAUAGCGCCAACGUUCUCCACUAUGACAAGCAAAACGCGUGCUCCGUUGAAUGGAGUUUAUCAUG
Second: GGAUCUUCUCGAUCUAACAAAAAAGACAUAUCUGCCACAAAGCUUGAGAGCAUCUUCGGAUGCAGAGGCGGCAGCCUUCGGUGGCGCGAUAGCGACAACGUUCUCAACUAUGACACGCAAAACGCGUGCUCCGCUGAAUCGAGUUUAUCAUG
The “polymerase ribozyme fitness (log ratio)” value of the first is higher: -0.169 for the first, ≤ -4.2 for the second.

Going from GGAUCUUCUCGAUCUAACAAAAAAGACAAAUCUGCCACAAAGCUUGAGAGCAACUUCGGAUGCAGAGGCGGCAGGCUUCGGUGGCGCGAUAGCGCCAACGUUCUCAACUAUGACACGCAAAACGCGUGCUCCGUUGAAUGGAGUUUAUCAUG to GGAUCAUCUCGAUCUAACGAAAAAGACAAAUCUGCCACAAAGCUUGAGAGCAUCUUCGGAUGCAGAGGCGGCAGCCUUCGGUGGCGCGAUAGCGCCAAAGUUCUCAACUAUGACACGCAAAACGCGUGCUCCGUUGAAUGGAGUUUAUCAUG, the “polymerase ribozyme fitness (log ratio)” value rises from ≤ -4.2 to -2.14.

GGAUGUUCUCGAUCUAACAAAAAAGACAAAUCUGCCACAAAGCUUGAGAGCAAGUUCGGAUGCAGAGGCGGCAGCCGUCGGCGGCGCGAUACCGCCAACGUUCUCAACUAUGACACGCAAAACGCGUGGUCCGUUGAAUGGAGCUUAUCAUG and GGAUCUUCUCGAUCUAACAAAAAAGCUAAAUCUGCCACAAAGCUUGAGAGCAUCUUAGGAUGCAGAGCCGGCAGCCUUCGGUGGCGCGAUAGCGCCAACGUUCUCAACUAUGACACGCAAAACGCGUGCUGCGUUGAAUGGAGUUUAUCAUG cannot be ordered by “polymerase ribozyme fitness (log ratio)” value: ≤ -4.2 for the first, ≤ -4.2 for the second.

First: GGAUCUUCUCGGUCUAACAAAAAAGACAAAUCUGCCACAAGGCUUGAGAGCAUCUUCGGAUGCAGAGGCGGCAGCCUUCGGUGGCGCGAUAGCGCCAACGUUCUCAACUAUGACACGCAAAACGCGUGCUCCGUUGAAUGGAGUUUAUCAUG
Second: GGAUCUUCUCGAUCUAACAAAAAAGACAAAUCUGCCACAAAGCUUGAGAGCAUCUUCGGAUGCAGAGGCGCCAGCCUUCGGUAGCGCGAUAGCGCCAACGUUCUCAACUAUGACACCCAAAACGCGUGAUCCGUUGAAUGGAGUUUAUCAUG
The “polymerase ribozyme fitness (log ratio)” value of the first is higher: 0.519 for the first, ≤ -4.2 for the second.

Going from GGAUCUUCUCGAUCUAACAAAAAAGUCAAAUCUGCCAAAAAGCUUGAGAGCAUCUUCGGAUGCAGAGGCGGCAGCCUUCGGUGGCGCGAUAGCGCCAACGUUCUCAACUAUGACACGCAAAACGCGUGCUCCGUUGAAUGGAGUUUAUCAUG to GGAUCUUCUCGAUCUAACAAAAAAGACAAAUCUGCCACAAAGCUUGAGAGCAUCUUCGGAUGCAGAGGCGGCAGCCUUCGGUGGCGUGAUAGCGCCAACGUUCUCAACUAUGACACGCAAAACGCGUGCUCCGUUUAAUGGAGUUUAUCAUG, the “polymerase ribozyme fitness (log ratio)” value falls from -2.37 to -2.59.

Compared with GGUUCUUCUCGAUCAAACAAAAAAGACAAAUCUGCCACAAAGCUUGAGAGCAUCUUCGGAUGCAGAGGCGGCAGCCUUCGGCGGCACGAUGGCGCCAACGUUCUCAACUAUGACACGCAAAACGCGUGCUCCGUUGAAUGGAGUUUAUCAUG, GGAUCUUCUCGAUCUAACAAAUAAGACAAAUCUGCCACAAAGCUUGAGACCAUCUUCGGAUGUAGAGGCGACAGCCUUCGGUGACGCGAUAGCGCCAACGUUCUCAACUAUGACACUCAAAUCGCGUGCUCCGUUGAAUGGAGUUUAUCAUG is lower in “polymerase ribozyme fitness (log ratio)” value: -3.4 for the first, -4 for the second.

First: GGAUCUUCUCGAUCUAACAAAAAAGACAAAUCUGCCACAAAGCUUGAGAGCAUCUUCGGAUGCAGAGGCGGCAGCCUUCGGUGGCGCGAUAGCGCUAACGUUCUCAACUGUGAUACGCAAAACGCGUGCUCCGUUGAAUGGGGUUUAUCAUG
Second: GGAUCUUCUCGAUCUAACAAAAAAGACAAAUCUGCCACAAAGCUUGAGAGCAUCUUCGGAUGCAGAGGCGGCAGCCUUCGGUGGCGCGAUUGCGCCAACGUUCUCAACUAUGACACGCAAAACGCGUGCUCCGUUGAAUGUAGUUUAUCAUG
The “polymerase ribozyme fitness (log ratio)” value of the first is higher: -4.07 for the first, ≤ -4.2 for the second.

Compared with GGAUCUUCUCGAUCUAACAAAAGAGACAAAUCUGCCACAAAGCUUGAGAGCAUAUUCGGAUGCAGAGGCGGCAGCCUUCGGUGGCGCGAUAGCGCCAACGUUCUCAACUAUGACACGCAAAACGCGUGCUCCGUUGAAUGGAGUUUAUCAUG, GGAUCUUCUCGAUCUAACAAAAAAGACAAAUCUGCCACAAAGCUUGAGAGCAUCUUCGGAUGCAGAGGCGGCGGCCUUCGGUGGCGCGAUAGCGCCAACGUUCUCCACUAUGACACGCAAAACGCGUGCUCCGUUGAAUGUAGUUUAUCAUG is higher in “polymerase ribozyme fitness (log ratio)” value: -3.28 for the first, -1.34 for the second.

Going from GGAUCUUCUCGAUCUAACAAAAAAGACAAAUCUGUCACAAAGCUUGAGAGCAUCUUCGGAUGCAGAGGCGGCAGCCUUCGGUGGCGCGAUAGGGCCAACGUUCUCAACUAUGACACGCAAAACGCAUGCUUCGUUGAAAGGAGUUUAUCAUG to GGAUCUUCUCGAUCUAACAAAAAAGACAAAUCUGCCACAAAGCUUGAGAGCAUCUACGGAUACAGAGGCGGCAGCCUCCGGUUGCGCGAUAGCGCCAACGUUCUCAACUAUGACACGCAAAACGCGUGCUCCGUUGAAUGGAGUUUAUCAUG, the “polymerase ribozyme fitness (log ratio)” value rises from -4.11 to -3.55.

GGAUCUUCUCGAUCUAACAAAAAAGACAAAUCUGCCACAAAGCUUGAGAGCAUCUUCGGAUGCAGAGGCGGCAGCAUUCGGUGGCGCGAUAGCGUAGACGUUCUCAACUAUGAUACGCAAAACGCGUGCUCCGUUGCAUGGAGUUUAUCAUG and GGAUCUUCUCGAUCUAACAAAAAAGACAAAUCUGCCACAAAGCUUGAGAGCAUCUUCGGAUGCAGAGGCGGCAGCCUUCGGUGGCGCGAUAGCGCCAACGUUCUCAACUAUGACACGCAAAACGCGUGCUCAGUUGAAUGGAUUUUAUCAUG cannot be ordered by “polymerase ribozyme fitness (log ratio)” value: ≤ -4.2 for the first, ≤ -4.2 for the second.

First: GGAUCUUCUCGAUCUAACAAAAAAGACAAAUCUGCCACAAAGCUUGAGAGCCUCAUCGGAUGCAGAGGCGGCAGCCUUCGGUGGCGCGAUAGCGCCAACGUUCUCAACUAUGACACGCAAAACGCGUGCUCCGUUGAAUGGAGUUUAUCAUG
Second: GGAUCUUCUCGAUCUAACAAAAAAGACAAAACUGCCACAAAGCUUGAGAGCAUCUUCGGAUGCAGAGGCGGCAGCCUCCGGUGGCGCGAUAGCGCCAACGUUCUCAACUAUGACACGCAAAACGCGUGCUCCGUUGAAUGGAGUUCAUCAUG
The “polymerase ribozyme fitness (log ratio)” value of the first is lower: -1.69 for the first, -0.876 for the second.

GGAUCUUCUCGAUCUAACAAAAAAGACAAAUCUGCCACAACGCUUGAGAACGUCUUCGGAUGCAGAGGCGGCAGCCUUCGGUGGCGCGAUAGCGCCAACGUUCUCAACUAUGACACGCACAACGCGUGCUCCGUUGAAUGGAGUUUAUCAUG and GGAUCUUCUCGAUCUAACAAAAAAGACAAAUCUGCCACAAAGCUUGAGAGCAUCUACGGAUGCAGAGGCGGCAGCCUUCGGUGGCGCGAUAGCGCCAACGUUCUCAACUAUGACACGCAAAACGCGUGCUCCGUUGCAUGGAGUUUAUCAUG are within 0.2 log units of each other in “polymerase ribozyme fitness (log ratio)” value: -2.96 for the first, -3.11 for the second.

First: GGAUCUUCUCGAUCUAACAAAAAAGACUAAUCUGCCACAAAGCUUGGGAGCAUCUUCGGAUGCAGAGGCGGCAGCCUUCGGUGGCGCGAUAGCGCAAACGUUCUCAACUAUGACACGCAAAACGCGUGCUCCGUUGAAUGAAGUUUAUCAUG
Second: GGAUCGUCUCGAUCUAACAAAAAAGACAAAUCUGCCACAAAGCUUGAGAGCAUCUUCGGAUGCAGAGGCGGCAGCCUUCGGUGGCGCGAUAGCGCAAACGUUCUCAACUAUGACACGCAAAUCGCGUGCUCCGUUGAAUGGAGUUUAUCAUG
The “polymerase ribozyme fitness (log ratio)” value of the first is lower: ≤ -4.2 for the first, -0.578 for the second.

Compared with GGAUCUUCUCGAUCUAACUAAAAAGACAAAUCUGCCACAAAGCUUGAGAGCAUCUUCGGAUGCAGAGGCGGCAGCCUUCGGUGGCGCGAUAGUGCCAACGUUCUCAACUAUGACACGCAAAACGCGUGCUCCGUUGAAUGGAGUUUAUCAUG, GGAUCUUCUCGAUCUAACAAAAAAGACAAAUCUCCCACAAAGCUUGAGAGCAUCUUCGGAUGCAGAGGGGGCAGCCUUCGGUGGGGCGAUAGCGCCAACGUUCUAAACUAUGACACGCAAAACGCGUGCUCCGUUGAAUGGAGUUUAUCAUG is lower in “polymerase ribozyme fitness (log ratio)” value: -0.795 for the first, ≤ -4.2 for the second.

Going from GGAUCUUCUCGAUCUAACAAAAAAGACAAAUCUGCCACAAAGCUUGAGAGCAUCUACGGAUGCAGAGGCGGCAGCCUUCGGUGGCGCGAUAGCGCCAACGUUCUCAACUAUGACACGCAAAACGCGUGCUCCGUUGAAUGGACUUUAUCAUG to GGAUCUUCUCGAUCUAACAAAAAAGACAAAUCUGCCACAAAGCUUGAGAGCAUCGUCGGAUGCAGAGGCGGCAGCCUUCGGUGGCGCGAUAGCGCUAACGUUCUUAACUAUGACACGCAAAACGCGUGCUCCGUUGAAUGGAAUUUAUCAUG, the “polymerase ribozyme fitness (log ratio)” value rises from -2.27 to -0.651.

First: GGAUCUUCUCGAUCUAACAAAAAAGACAAAUCUGCCACAAAGUUUGAGAGCAUCUUCGGAUGCAGAGGUGGCAGCCUUCGGUGGCGCGAUCGCGCCAACGUUCUCAACUAUGACACGCAAAACGCGUGCUCCGUUGCAUGGAGUUUAUCAUG
Second: GGAUCUUAUCGAUCUAACAAAAAAGACAAAUCUGCCACAAAGCUUGAGAGCAUCAUCGGAUGCAGAGGCGGCAGCCUUCGGUGGCGCGAUAGCGCCAACGUUCUCAACUAUGACACGCAAAACGCGUGCUCCGUUGAAUGGAGUUUAUCAUG
The “polymerase ribozyme fitness (log ratio)” value of the first is lower: ≤ -4.2 for the first, -3.18 for the second.

GGAUCUUCUCGAUCUAACAAAAAAGACAAAUCUGCCACAAAGCUUGAGGGCAUCUUCGGAUGCAGAGGCGGCAGCCUUCGGUGGCGCGAUAGAGCCAACAUUCUCAACUAUGACACGCAAAACGCGUGCUCCGUUGAAUGGAGUUUAUCAUG and GGAUCUUCUCGAUCUAACAAAAAAGACAAAUCUGCCACAAAGCUUGAGACUAUGUUCGGAUGCAGAGGCGGCAGCCUUCGGUGGCGUGAUAGCGCCAACGUUCUCAACUAUGACACGCAAAACGCGUGCUCCGUUGAAUGGAGUUUAUCAUG cannot be ordered by “polymerase ribozyme fitness (log ratio)” value: ≤ -4.2 for the first, ≤ -4.2 for the second.

First: GGAUCUUCUCGAGCUAACAAAAAAGACAAAUCUGCCACAAAGCUUGAGAGCAUCUUCGGAUGCAGAGGCGGCAGCCUUCGGUCGCGCGAUAGCGCCAACGUUCUCAACUAUGACACGCAAAACGGGUGCUCCAUUGAAUGGAGUGUAUCAUG
Second: GGAUCUUCUCGAUCUAACAAAAAAGACAAAUCUGCCACAAAGCUUGAGAGCAUCUUCGGGUGUAGAGGCGGCAGCCUUCGGUGGCGCGAUAGCACCAACGUUCUCAACUAUGAUACGCAAAACGCGUGCUCCGUUGAAUGGAGUUUAUCAUG
The “polymerase ribozyme fitness (log ratio)” value of the first is lower: ≤ -4.2 for the first, -2.5 for the second.

First: GGAUCUUCUCGAUCUAUCAAAAAAGACAAAUCUGCCACAAAGCUUGAGAGCAUCUUCGGAUGCAGAGGCGGCAGCCUUCGGUGGCGCGAUAGCGCCAACGUUCUCAACUAUGACACGCAAAACGCGAGCUCCGUUGAAUGGAGUUUAUCAUG
Second: GGAUCUUCUCGAUCUAACAAAAAAGACAAAUCUGCCACAAAGCUUGAGAGCAUCAUCGGAUGCAGAGGCGGCAGCCUUCGAUGGCGUGAUAGCGCCAACGUUCUCAACUAUGACACGCAAAACGCGUGCUCCGUUAAAUGGAGUUUAUCAUG
The “polymerase ribozyme fitness (log ratio)” value of the first is lower: -3.29 for the first, 0.0612 for the second.
